Test results reported in paper doi:10.1101/2020.06.02.131169 (bioRxiv, 2020).
One block for each molecule: values may come before it.

Key:
[1] = target: bifunctional TreS-Mak of Estrella lausannensis (trehalose synthase-maltokinase) (Estrella lausannensis); test: SEC
[2] = target: the molecule itself; test: SEC

stoichiometry N [1]: 2
Molecule: bifunctional TreS-Mak of Estrella lausannensis (trehalose synthase-maltokinase) (enzyme)

B1: GlgE of Estrella lausannensis (maltosyl-1-phosphate transferase) (enzyme, UniProt A0A0H5DRC6 1-675, looked up)
chain: MSVSAAEKRQLLTQVKASGSMYTNTLHSIVIQNISPKPEPFGPAKRVLLEQVEVEADIFTDPHTKLEADLIVKAPGLRKTTRIPFHPLVNDRFKAVFVPDTPGTYSFFVEAWVNPAALWQEDLRKKQEARLDLTVDLQIGAALLVEVADLLPPEESVKLLQIAKKLREQKGAEAVAFDPEIARLGRLARPKSRQGVCSQEQEVFVTRKKALFSTWYELFPRSCSGTMRHGTFNDVVAKLPRISRMGFDVLYLPPIHPIGKTKRKGKNNALTALPDDPGSPWAVGSHEGGHDAIQRELGTLADFERLVKEAESLGIEIALDIALQCSPDHPYLKEHPEWFLKRPDGTYQYAENPPKKYEDIIPFHFTEDNKDTLFREILRIFLFWMKRGVRIFRVDNPHTKPFALWEYVIGEVRKVDSGVIFLAEAFTRPKIMHHLARIGFDQSYTYFTWRNTKWELTEYLTELTKTEARNYLRPNFFVNTPDILPESLQWGGRAAFLTRLILAATLSSSYGIYGPAFEQMLSEAVPGKEDYIDSEKYEIKPWDFEKKGTISETIEIVNRIRKENPALQATGNLEFYATDNDYLLAYGKQGPQGESLLIVVNLDHYHTQSGYVTLPLMHLGIQEKEPYLVDDLLSGERYIWEGERNYIQLSPHLVPAHIFRIRPKMLRENNFDYFI
stoichiometry N [2]: 2
